Assay results as given in US20150086555A1.

What was measured:
Settings in all cases: remark: other sources report otherwise
[1] = biological target: recombinant soluble homotrimeric HA, A/chicken/Vietnam/NCVD-016/08 H5N1 (Influenza A virus A/chicken/Vietnam/NCVD-016/2008(H5N1)); test: microarray, transfection SN IgG, trimeric HA
[2] = biological target: recombinant soluble homotrimeric HA, A/Japan/305/57 H2N2 (Influenza A virus A/Japan/305/1957(H2N2)); test: microarray, transfection SN IgG, trimeric HA
[3] = biological target: recombinant soluble homotrimeric HA, A/Netherlands/219/03 H7N7 (Influenza A virus A/Netherlands/219/03(H7N7)); test: microarray, transfection SN IgG, trimeric HA
[4] = biological target: recombinant soluble homotrimeric HA, A/Egypt/3300-NAMRU3/08 H5N1 (Influenza A virus A/Egypt/3300-NAMRU3/2008(H5N1)); test: microarray, transfection SN IgG, trimeric HA
[5] = biological target: recombinant soluble homotrimeric HA, A/Solomon Islands/3/06 H1N1 (Influenza A virus A/Solomon Islands/3/2006(H1N1)); test: microarray, transfection SN IgG, trimeric HA
[6] = biological target: recombinant soluble homotrimeric HA, A/swine/Ontario/01911-2/99 H4N6 (Influenza A virus A/Swine/Ontario/01911-2/99 (H4N6)); test: microarray, transfection SN IgG, trimeric HA
[7] = biological target: recombinant soluble homotrimeric HA, A/South Carolina/1/18 H1N1 (Influenza A virus A/South Carolina/1/18 (H1N1)); test: microarray, transfection SN IgG, trimeric HA
[8] = biological target: recombinant soluble homotrimeric HA, A/Wisconsin/67/05 H3N2 (Influenza A virus A/Wisconsin/67/2005(H3N2)); test: microarray, transfection SN IgG, trimeric HA
[9] = biological target: recombinant soluble homotrimeric HA, A/California/4/09 H1N1 (Influenza A virus A/California/04/2009(H1N1)); test: microarray, transfection SN IgG, trimeric HA
[10] = biological target: recombinant soluble homotrimeric HA, A/northern shoveler/California/HKWF115/07 H6N4 (Influenza A virus A/northern shoveler/California/HKWF115/2007(H6N1)); test: microarray, transfection SN IgG, trimeric HA
[11] = biological target: recombinant homotrimeric HA A/California/4/09 H1N1 (Influenza A virus A/California/04/2009(H1N1)); test: protein microarray, purified IgG, trimeric HA
[12] = biological target: recombinant homotrimeric HA A/Hong Kong/2108/03 H9N2 (Influenza A virus A/HK/2108/2003(H9N2)); test: protein microarray, purified IgG, trimeric HA
[13] = biological target: recombinant homotrimeric HA A/Egypt/3300-NAMRU3/08 H5N1 (Influenza A virus A/Egypt/3300-NAMRU3/2008(H5N1)); test: protein microarray, purified IgG, trimeric HA
[14] = biological target: recombinant homotrimeric HA A/South Carolina/1/18 H1N1 (Influenza A virus A/South Carolina/1/18 (H1N1)); test: protein microarray, purified IgG, trimeric HA
[15] = biological target: recombinant homotrimeric HA A/chicken/Vietnam/NCVD-016/08 H5N1 (Influenza A virus A/chicken/Vietnam/NCVD-016/2008(H5N1)); test: protein microarray, purified IgG, trimeric HA
[16] = biological target: recombinant homotrimeric HA A/Wisconsin/67/05 H3N2 (Influenza A virus A/Wisconsin/67/2005(H3N2)); test: protein microarray, purified IgG, trimeric HA
[17] = biological target: recombinant homotrimeric HA A/Hong Kong/1073/99 H9N2 (Influenza A virus A/Hong Kong/1073/99 (H9N2)); test: protein microarray, purified IgG, trimeric HA
[18] = biological target: recombinant homotrimeric HA A/Japan/305/57 H2N2 (Influenza A virus A/Japan/305/1957(H2N2)); test: protein microarray, purified IgG, trimeric HA
[19] = biological target: recombinant homotrimeric HA A/Solomon Islands/3/06 H1N1 (Influenza A virus A/Solomon Islands/3/2006(H1N1)); test: protein microarray, purified IgG, trimeric HA
[20] = biological target: recombinant homotrimeric HA A/northern shoveler/California/HKWF115/07 H6N4 (Influenza A virus A/northern shoveler/California/HKWF115/2007(H6N1)); test: protein microarray, purified IgG, trimeric HA
[21] = biological target: recombinant homotrimeric HA A/Netherlands/219/03 H7N7 (Influenza A virus A/Netherlands/219/03(H7N7)); test: protein microarray, purified IgG, trimeric HA
[22] = biological target: recombinant soluble homotrimeric HA, A/duck/Yangzhou/02/05 H8N4 (Influenza A virus A/duck/Yangzhou/02/2005(H8N4)); test: microarray, transfection SN IgG, trimeric HA
[23] = biological target: recombinant soluble homotrimeric HA of A/swine/Ontario/01911-2/99 (H4N6) (Influenza A virus A/Swine/Ontario/01911-2/99 (H4N6)); test: HA microarray, BCC supernatant
[24] = biological target: recombinant soluble homotrimeric HA of A/Solomon Islands/3/06 (H1N1) (Influenza A virus A/Solomon Islands/3/2006(H1N1)); test: HA microarray, BCC supernatant
[25] = biological target: recombinant soluble homotrimeric HA of A/Japan/305/57 (H2N2) (Influenza A virus A/Japan/305/1957(H2N2)); test: HA microarray, BCC supernatant
[26] = biological target: recombinant soluble homotrimeric HA of A/Wisconsin/67/05 (H3N2) (Influenza A virus A/Wisconsin/67/2005(H3N2)); test: HA microarray, BCC supernatant
[27] = biological target: recombinant soluble homotrimeric HA of A/Netherlands/219/03 (H7N7) (Influenza A virus A/Netherlands/219/03(H7N7)); test: HA microarray, BCC supernatant
[28] = biological target: recombinant soluble homotrimeric HA of A/duck/Yangzhou/02/05 (H8N4) (Influenza A virus A/duck/Yangzhou/02/2005(H8N4)); test: HA microarray, BCC supernatant
[29] = biological target: recombinant soluble homotrimeric HA of A/California/4/09 (H1N1) (Influenza A virus A/California/04/2009(H1N1)); test: HA microarray, BCC supernatant
[30] = biological target: recombinant homotrimeric HA A/duck/Yangzhou/02/05 H8N4 (Influenza A virus A/duck/Yangzhou/02/2005(H8N4)); test: protein microarray, purified IgG, trimeric HA
[31] = biological target: recombinant soluble homotrimeric HA of A/northern shoveler/California/HKWF115/07 (H6) (Influenza A virus A/northern shoveler/California/HKWF115/2007(H6N1)); test: HA microarray, BCC supernatant
[32] = biological target: recombinant soluble homotrimeric HA of A/chicken/Vietnam/NCVD-016/08 (H5N1) (Influenza A virus A/chicken/Vietnam/NCVD-016/2008(H5N1)); test: HA microarray, BCC supernatant

| Binder | Trimeric HA Binding: RLU [1] [RLU] | Trimeric HA Binding: RLU [2] [RLU] | Trimeric HA Binding: RLU [3] [RLU] | Trimeric HA Binding: RLU [4] [RLU] | Trimeric HA Binding: RLU [5] [RLU] | Trimeric HA Binding: RLU [6] [RLU] | Trimeric HA Binding: RLU [7] [RLU] | Trimeric HA Binding: RLU [8] [RLU] | Trimeric HA Binding: RLU [9] [RLU] | Trimeric HA Binding: RLU [10] [RLU] | Trimeric HA Binding: RLU [11] [RLU] | Trimeric HA Binding: RLU [13] [RLU] | Trimeric HA Binding: RLU [14] [RLU] | Trimeric HA Binding: RLU [15] [RLU] | Trimeric HA Binding: RLU [16] [RLU] | Trimeric HA Binding: RLU [17] [RLU] | Trimeric HA Binding: RLU [22] [RLU] | Trimeric HA Binding: RLU [24] [RLU] | Trimeric HA Binding: RLU [25] [RLU] | Trimeric HA Binding: RLU [27] [RLU] | further results |
| --- | --- | --- | --- | --- | --- | --- | --- | --- | --- | --- | --- | --- | --- | --- | --- | --- | --- | --- | --- | --- | --- |
| TCN-558 (5248_H10b) (antibody, V domains shown) VH: QVQLVQSGSEVKKPGTSVKVSCTASGSVFTNYGISWVRQAPGQGLEWMGGIIPLFGAAKYAQKFQGRVTITADESTKTVYMELSRLTSKDTAIYFCAKAPRVYEYYFDQWGQGTPVTVSS VL: EIVMTQFPATLSVSPGERVTLSCRASQSVSNNLAWYQQKPGQPPRLLIYDASTRATGVPAKFSGTGSGTEFTLSISSLQSEDFAVYYCQQYHNWPPSYSFGLGTKLEIK | 33400 | 34400 | 5840 | 21900 | 36100 | 10000 | 40700 | 26600 | 20200 | 29400 | 24700 | 25500 | 13600 | 9730 | 320 | 4380 | – | – | – | – | Trimeric HA Binding: RLU [12]: 257 RLU; Trimeric HA Binding: RLU [18]: 27200 RLU; Trimeric HA Binding: RLU [19]: 22000 RLU; Trimeric HA Binding: RLU [20]: 12300 RLU; Trimeric HA Binding: RLU [21]: 623 RLU |
| TCN-547 (5092_F11) (antibody, V domains shown) VH: QVQLQESGPGLVKPSQTLSLTCTVSGDSISSVDHYWSWIRQHPVKGLEWIGFMYYSASTYYNPSLKSRVTISTDTSKNQFSLRLSSVTAADTAVYYCARGTCAGDCSLHYYYYGLDVWGQGRTVTVSS VL: DIQMTQSPSSLSASVGDRVTITCRASQSISSYLNWYQHKPGKAPKVLMYAVSILQSGVPSRFSGSGSGADFTLTISSLQPEDFATYYCQQSYSSPLTFGGGTKVEIK | 1320 | 1350 | 2090 | 16800 | 1080 | 1600 | 2020 | 6970 | – | 2620 | – | – | – | – | – | – | 3340 | 155 | 40 | 401 | Trimeric HA Binding: RLU [23]: 252 RLU; Trimeric HA Binding: RLU [26]: 16900 RLU; Trimeric HA Binding: RLU [28]: 278 RLU |
| TCN-548 (5092_P01) (antibody, V domains shown) VH: QVQLQESGPGLVKPSETLSLTCTVSSGPMSDYYWSWIRQPPGKGLEWIGHVSVSHGGRTKSNPSVMSRVTISVETSKNQFSLKLTSVTAADTAVYYCARLNYYDRSGYHSPDGPSNNWFDPWGQGTLVTVSS VL: not shown | 1060 | 1020 | 2130 | – | 750 | 1620 | 1150 | – | 818 | 2100 | – | – | – | – | – | – | 5740 | 283 | 416 | 758 | Trimeric HA Binding: RLU [23]: 240 RLU; Trimeric HA Binding: RLU [28]: 184 RLU; Trimeric HA Binding: RLU [29]: 234 RLU |
| TCN-549 (5092_P04) (antibody, V domains shown) VH: QVQLVQSGAEVKKPGASVKVSCKASGYTFTGYYMHWVRQAPGQGLEWMGWINPNSGDTNYAQKFQGRVTMTRDTSITTAYMELSSLRSDDTAVYYCARDSPYSSSWSFFDYWGQGPLVTVSS VL: not shown | 1600 | 1080 | 8480 | 18600 | 640 | 1880 | 2340 | 51600 | 622 | 996 | 196 | 6920 | 72 | 177 | 27200 | 450 | 9450 | 284 | 387 | 1130 | Trimeric HA Binding: RLU [30]: 166 RLU; Trimeric HA Binding: RLU [18]: 413 RLU; Trimeric HA Binding: RLU [20]: 112 RLU; Trimeric HA Binding: RLU [21]: 193 RLU; Trimeric HA Binding: RLU [26]: 30900 RLU; Trimeric HA Binding: RLU [31]: 1100 RLU; Trimeric HA Binding: RLU [32]: 498 RLU; Trimeric HA Binding: RLU [29]: 338 RLU |
